Measurements taken from US20250361268A1, “NOVEL ANTI-INFLAMMATORY PEPTIDE AND USE THEREOF” (NOVACELL TECHNOLOGY INC., priority 2022, published 2025).

B1: peptide of SEQ ID NO 75 (peptide)
peptide: RWRYKPM
HELM: PEPTIDE1{[CCCC(=O)[*:2]].R.W.R.Y.K.P.[dM].[am]}$$$$V2.0
SMILES: CCCC(=O)N[C@@H](CCCNC(=N)N)C(=O)N[C@@H](Cc1c[nH]c2ccccc12)C(=O)N[C@@H](CCCNC(=N)N)C(=O)N[C@@H](Cc1ccc(O)cc1)C(=O)N[C@@H](CCCCN)C(=O)N1CCC[C@H]1C(=O)N[C@H](CCSC)C(N)=O
B2: peptide of SEQ ID NO 76 (peptide)
peptide: WRYKPM
HELM: PEPTIDE1{[ac].W.R.Y.K.P.[dM].[am]}$$$$V2.0
SMILES: CSCC[C@@H](NC(=O)[C@@H]1CCCN1C(=O)[C@H](CCCCN)NC(=O)[C@H](Cc1ccc(O)cc1)NC(=O)[C@H](CCCNC(=N)N)NC(=O)[C@H](Cc1c[nH]c2ccccc12)NC(C)=O)C(N)=O
B3: peptide of SEQ ID NO 93 (peptide)
peptide: HMRYWYM
HELM: PEPTIDE1{[CCCC(=O)[*:2]].H.M.R.Y.W.Y.[dM].[am]}$$$$V2.0
SMILES: CCCC(=O)N[C@@H](Cc1c[nH]cn1)C(=O)N[C@@H](CCSC)C(=O)N[C@@H](CCCNC(=N)N)C(=O)N[C@@H](Cc1ccc(O)cc1)C(=O)N[C@@H](Cc1c[nH]c2ccccc12)C(=O)N[C@@H](Cc1ccc(O)cc1)C(=O)N[C@H](CCSC)C(N)=O
B4: peptide of SEQ ID NO 94 (peptide)
peptide: RWRYYVM
HELM: PEPTIDE1{R.W.R.Y.Y.V.[dM].[am]}$$$$V2.0; N-terminus assumed
SMILES: CSCC[C@@H](NC(=O)[C@@H](NC(=O)[C@H](Cc1ccc(O)cc1)NC(=O)[C@H](Cc1ccc(O)cc1)NC(=O)[C@H](CCCNC(=N)N)NC(=O)[C@H](Cc1c[nH]c2ccccc12)NC(=O)[C@@H](N)CCCNC(=N)N)C(C)C)C(N)=O
B5: peptide of SEQ ID NO 96 (peptide)
peptide: KWKYYVM
HELM: PEPTIDE1{K.W.K.Y.Y.V.[dM].[am]}$$$$V2.0; N-terminus assumed
SMILES: CSCC[C@@H](NC(=O)[C@@H](NC(=O)[C@H](Cc1ccc(O)cc1)NC(=O)[C@H](Cc1ccc(O)cc1)NC(=O)[C@H](CCCCN)NC(=O)[C@H](Cc1c[nH]c2ccccc12)NC(=O)[C@@H](N)CCCCN)C(C)C)C(N)=O
B6: peptide of SEQ ID NO 97 (peptide)
peptide: RMRYYVM
HELM: PEPTIDE1{R.M.R.Y.Y.V.[dM].[am]}$$$$V2.0; N-terminus assumed
SMILES: CSCC[C@H](NC(=O)[C@@H](N)CCCNC(=N)N)C(=O)N[C@@H](CCCNC(=N)N)C(=O)N[C@@H](Cc1ccc(O)cc1)C(=O)N[C@@H](Cc1ccc(O)cc1)C(=O)N[C@H](C(=O)N[C@H](CCSC)C(N)=O)C(C)C
B7: peptide of SEQ ID NO 98 (peptide)
peptide: RMRYYVM
HELM: PEPTIDE1{[ac].R.M.R.Y.Y.V.[dM].[am]}$$$$V2.0
SMILES: CSCC[C@H](NC(=O)[C@H](CCCNC(=N)N)NC(C)=O)C(=O)N[C@@H](CCCNC(=N)N)C(=O)N[C@@H](Cc1ccc(O)cc1)C(=O)N[C@@H](Cc1ccc(O)cc1)C(=O)N[C@H](C(=O)N[C@H](CCSC)C(N)=O)C(C)C
B8: peptide of SEQ ID NO 100 (peptide)
peptide: MRYYVM
HELM: PEPTIDE1{M.R.Y.Y.V.[dM].[am]}$$$$V2.0; N-terminus assumed
SMILES: CSCC[C@H](N)C(=O)N[C@@H](CCCNC(=N)N)C(=O)N[C@@H](Cc1ccc(O)cc1)C(=O)N[C@@H](Cc1ccc(O)cc1)C(=O)N[C@H](C(=O)N[C@H](CCSC)C(N)=O)C(C)C
B9: peptide of SEQ ID NO 101 (peptide)
peptide: RWRYWVM
HELM: PEPTIDE1{R.W.R.Y.W.V.[dM].[am]}$$$$V2.0; N-terminus assumed
SMILES: CSCC[C@@H](NC(=O)[C@@H](NC(=O)[C@H](Cc1c[nH]c2ccccc12)NC(=O)[C@H](Cc1ccc(O)cc1)NC(=O)[C@H](CCCNC(=N)N)NC(=O)[C@H](Cc1c[nH]c2ccccc12)NC(=O)[C@@H](N)CCCNC(=N)N)C(C)C)C(N)=O
B10: peptide of SEQ ID NO 102 (peptide)
peptide: WRYWVM
HELM: PEPTIDE1{[ac].W.R.Y.W.V.[dM].[am]}$$$$V2.0
SMILES: CSCC[C@@H](NC(=O)[C@@H](NC(=O)[C@H](Cc1c[nH]c2ccccc12)NC(=O)[C@H](Cc1ccc(O)cc1)NC(=O)[C@H](CCCNC(=N)N)NC(=O)[C@H](Cc1c[nH]c2ccccc12)NC(C)=O)C(C)C)C(N)=O
B11: peptide of SEQ ID NO 104 (peptide)
peptide: RMRYWVM
HELM: PEPTIDE1{[ac].R.M.R.Y.W.V.[dM].[am]}$$$$V2.0
SMILES: CSCC[C@H](NC(=O)[C@H](CCCNC(=N)N)NC(C)=O)C(=O)N[C@@H](CCCNC(=N)N)C(=O)N[C@@H](Cc1ccc(O)cc1)C(=O)N[C@@H](Cc1c[nH]c2ccccc12)C(=O)N[C@H](C(=O)N[C@H](CCSC)C(N)=O)C(C)C
B12: peptide of SEQ ID NO 105 (peptide)
peptide: MRYWVM
HELM: PEPTIDE1{[ac].M.R.Y.W.V.[dM].[am]}$$$$V2.0
SMILES: CSCC[C@H](NC(C)=O)C(=O)N[C@@H](CCCNC(=N)N)C(=O)N[C@@H](Cc1ccc(O)cc1)C(=O)N[C@@H](Cc1c[nH]c2ccccc12)C(=O)N[C@H](C(=O)N[C@H](CCSC)C(N)=O)C(C)C
B13: peptide of SEQ ID NO 106 (peptide)
peptide: RMRYWPM
HELM: PEPTIDE1{R.M.R.Y.W.P.[dM].[am]}$$$$V2.0; N-terminus assumed
SMILES: CSCC[C@H](NC(=O)[C@@H](N)CCCNC(=N)N)C(=O)N[C@@H](CCCNC(=N)N)C(=O)N[C@@H](Cc1ccc(O)cc1)C(=O)N[C@@H](Cc1c[nH]c2ccccc12)C(=O)N1CCC[C@H]1C(=O)N[C@H](CCSC)C(N)=O
B14: peptide of SEQ ID NO 107 (peptide)
peptide: RMRYWPM
HELM: PEPTIDE1{[ac].R.M.R.Y.W.P.[dM].[am]}$$$$V2.0
SMILES: CSCC[C@H](NC(=O)[C@H](CCCNC(=N)N)NC(C)=O)C(=O)N[C@@H](CCCNC(=N)N)C(=O)N[C@@H](Cc1ccc(O)cc1)C(=O)N[C@@H](Cc1c[nH]c2ccccc12)C(=O)N1CCC[C@H]1C(=O)N[C@H](CCSC)C(N)=O
B15: peptide of SEQ ID NO 32 (peptide)
peptide: RWRYKYM
HELM: PEPTIDE1{R.W.R.Y.K.Y.[dM].[am]}$$$$V2.0; N-terminus assumed
SMILES: CSCC[C@@H](NC(=O)[C@H](Cc1ccc(O)cc1)NC(=O)[C@H](CCCCN)NC(=O)[C@H](Cc1ccc(O)cc1)NC(=O)[C@H](CCCNC(=N)N)NC(=O)[C@H](Cc1c[nH]c2ccccc12)NC(=O)[C@@H](N)CCCNC(=N)N)C(N)=O
B16: peptide of SEQ ID NO 34 (peptide)
peptide: RWRYKYM
HELM: PEPTIDE1{[CCCCCCCC(=O)[*:2]].R.W.R.Y.K.Y.[dM].[am]}$$$$V2.0
SMILES: CCCCCCCC(=O)N[C@@H](CCCNC(=N)N)C(=O)N[C@@H](Cc1c[nH]c2ccccc12)C(=O)N[C@@H](CCCNC(=N)N)C(=O)N[C@@H](Cc1ccc(O)cc1)C(=O)N[C@@H](CCCCN)C(=O)N[C@@H](Cc1ccc(O)cc1)C(=O)N[C@H](CCSC)C(N)=O
B17: peptide of SEQ ID NO 39 (peptide)
peptide: RMRYKYM
HELM: PEPTIDE1{[ac].R.M.R.Y.K.Y.[dM].[am]}$$$$V2.0
SMILES: CSCC[C@H](NC(=O)[C@H](CCCNC(=N)N)NC(C)=O)C(=O)N[C@@H](CCCNC(=N)N)C(=O)N[C@@H](Cc1ccc(O)cc1)C(=O)N[C@@H](CCCCN)C(=O)N[C@@H](Cc1ccc(O)cc1)C(=O)N[C@H](CCSC)C(N)=O
B18: peptide of SEQ ID NO 40 (peptide)
peptide: RMRYKYM
HELM: PEPTIDE1{[CCCCCCCC(=O)[*:2]].R.M.R.Y.K.Y.[dM].[am]}$$$$V2.0
SMILES: CCCCCCCC(=O)N[C@@H](CCCNC(=N)N)C(=O)N[C@@H](CCSC)C(=O)N[C@@H](CCCNC(=N)N)C(=O)N[C@@H](Cc1ccc(O)cc1)C(=O)N[C@@H](CCCCN)C(=O)N[C@@H](Cc1ccc(O)cc1)C(=O)N[C@H](CCSC)C(N)=O
B19: peptide of SEQ ID NO 42 (peptide)
peptide: MRYKYM
HELM: PEPTIDE1{[ac].M.R.Y.K.Y.[dM].[am]}$$$$V2.0
SMILES: CSCC[C@H](NC(C)=O)C(=O)N[C@@H](CCCNC(=N)N)C(=O)N[C@@H](Cc1ccc(O)cc1)C(=O)N[C@@H](CCCCN)C(=O)N[C@@H](Cc1ccc(O)cc1)C(=O)N[C@H](CCSC)C(N)=O

Tests used:
[1] = biological target: T1, formyl peptide receptor 2 (FPR2) (UniProt P25090 1-351, limits assumed); test: cell-based or functional assay
T1 sequence (looked up): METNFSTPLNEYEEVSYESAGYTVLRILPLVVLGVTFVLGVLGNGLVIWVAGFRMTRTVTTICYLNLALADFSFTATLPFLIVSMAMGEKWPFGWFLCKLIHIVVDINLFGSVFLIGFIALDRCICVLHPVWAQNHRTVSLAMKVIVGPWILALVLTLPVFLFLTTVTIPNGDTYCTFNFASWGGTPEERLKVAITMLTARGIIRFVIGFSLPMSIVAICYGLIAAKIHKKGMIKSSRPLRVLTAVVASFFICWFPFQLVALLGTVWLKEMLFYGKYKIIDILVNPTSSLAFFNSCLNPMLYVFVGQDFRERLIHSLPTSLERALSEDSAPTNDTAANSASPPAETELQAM

[2] = biological target: T2, FPR1 (UniProt P21462 1-350, limits assumed); test: cell-based or functional assay
T2 sequence (looked up): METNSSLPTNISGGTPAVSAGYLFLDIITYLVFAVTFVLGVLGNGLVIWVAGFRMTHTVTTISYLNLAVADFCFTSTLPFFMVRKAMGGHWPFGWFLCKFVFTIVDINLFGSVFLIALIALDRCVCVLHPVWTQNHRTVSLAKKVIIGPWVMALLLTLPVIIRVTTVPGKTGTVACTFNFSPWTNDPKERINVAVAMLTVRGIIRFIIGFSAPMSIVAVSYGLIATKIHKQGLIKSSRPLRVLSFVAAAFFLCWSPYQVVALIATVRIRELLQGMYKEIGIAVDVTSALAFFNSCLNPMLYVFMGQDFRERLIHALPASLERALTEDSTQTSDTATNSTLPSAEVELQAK

Row | Binder | EC50 for [Ca2+] [1] [nM] | EC50 for [Ca2+] [2] [nM]
1 | B1 | < 10 | –
2 | B2 | < 10 | –
3 | B3 | < 10 | –
4 | B4 | < 10 | –
5 | B5 | < 10 | –
6 | B6 | < 10 | –
7 | B7 | < 10 | –
8 | B8 | < 10 | –
9 | B9 | < 10 | –
10 | B10 | < 10 | –
11 | B11 | < 10 | –
12 | B12 | < 10 | –
13 | B13 | < 10 | –
14 | B14 | < 10 | –
15 | B15 | – | > 10000
16 | B16 | – | > 10000
17 | B17 | – | > 10000
18 | B18 | – | > 10000
19 | B19 | – | > 10000
